Measurements taken from US20200157187A1 (LOYOLA UNIVERSITY CHICAGO, published 2020).

Columns and labels:
[1] = molecular target: T1, active TGF-β1, recombinant (Ala279-Ser390) (UniProt P01137 279-390); assay: SPR, kinetic analysis on active TGF-β
T1 construct: range 279-390; The background describes the growth factor domain as a dimer; also called purified active TGF-β1

[2] = molecular target: T1, active TGF-β1, recombinant …; assay: SPR, chip coated with active TGF-β, positive control antibody
[3] = molecular target: T2, active TGF-β on the surface of human CD4+CD25+ Tregs (human, UniProt P01137 279-390, The active form is a disulfide-linked homodimer of the growth factor domain; one chain is given.); assay: confocal microscopy of human Tregs, detected with anti-rabbit Fab-AF488
T2 construct: also called surface TGF-β; surface active TGF-β
T2 sequence (P01137 279-390 limits assumed): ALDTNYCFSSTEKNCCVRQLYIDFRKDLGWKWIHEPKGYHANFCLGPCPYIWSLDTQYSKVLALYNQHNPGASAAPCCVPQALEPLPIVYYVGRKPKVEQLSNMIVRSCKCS
Protocol: FIGS. 5A and 5B represent functional characterization of 6Fc. FIG. 5A represents an effect of 6Fc on phosphorylation of SMAD2/3. […] As a control, WTFc was used (shown on the right panel). Phosphorylation of SMAD2,3 was assessed by flow cytometry (solid line). Dotted lines show isotype control staining. FIG. 5B represents confocal images of Tregs stained with the monobody-Ig fusion proteins. Purified human PBMC-derived Tregs were mixed with 6Fc or WTFc (40 μg/ml), followed by anti-rabbit Fab-AF488 (green) and Hoechst-33342 (blue) staining. Single-cell images were obtained using an LSM-510 confocal microscope (×40).

TGF-β3 = molecular target: T3, TGF-β3 (UniProt P10600 301-412); assay: ELISA on coated TGF-β isoforms
T3 sequence (looked up): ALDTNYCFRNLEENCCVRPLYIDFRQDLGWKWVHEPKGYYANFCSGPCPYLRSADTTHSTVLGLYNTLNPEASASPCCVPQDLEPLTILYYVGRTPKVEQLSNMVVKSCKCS

TGF-β2 = molecular target: T4, TGF-β2 (UniProt P61812 303-414); assay: ELISA on coated TGF-β isoforms
T4 sequence (looked up): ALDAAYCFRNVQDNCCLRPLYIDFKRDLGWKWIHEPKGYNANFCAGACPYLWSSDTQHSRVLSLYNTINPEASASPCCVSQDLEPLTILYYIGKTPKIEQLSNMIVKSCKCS

T1 sequence (P01137 279-390 limits assumed, form in doubt): as the sequence (P01137 279-390 limits assumed) above

B1: anti-TGF-β monoclonal antibody 1D11 (antibody, V domains shown)
VH: QVQLQQSGPELVRPGASVKLSCKASGYIFITYWMNWVKQRPGQGLEWIGQIFPASGSTNYNEMFEGKATLTVDTSSSTAYMQLSSLTSEDSAVYYCARGDGNYALDAMDYWGQGTSVTVSS
VL: DIVLTQSPASLAVSLGQRATISCRASESVDSYGNSFMHWYQQKSGQPPKLLIYLASNLESGVPARFSGSGSRTDFTLTIDPVEADDAATYYCQQNNEDPLTFGAGTKLEIK
**Q.** Which koff [1] does the source give for B1 here?
**A.** 0.00028 s⁻¹

**Q.** And the kon [1]?
**A.** 14000 M⁻¹ s⁻¹

**Q.** What about the Kd [2] of the same binder?
**A.** 1.9 nM

B2: WTFc (wild-type FN3 fused to rabbit IgG constant region CH2/CH3, His6 tag) (Fc fusion)
chain (part 1 of 2): AVSDVPRKLEVVAATPTSLLISWDAPIKRRLYYRITYGETGGNSPVQEFTVPGSKSTATISGLKPGVDYTITVYAVTYPAPYSKPISINYR
chain (part 2 of 2): HHHHHH
notes: Control fusion protein; also called wild-type FN3 fusion protein; not shown: rabbit IgG constant region, CH2/CH3 (Cγ2-Cγ3) domains
**Q.** Which results are given for B2?
**A.** binding result [3]: no binding (tested: 40 µg/ml); binding result (TGF-β3): no binding; binding result (TGF-β2): no binding
